The results in this text go back to the DeepSol protein solubility set.

The series is described as follows: soluble on expression in E. coli; label from the status in PepcDB or PDB records.
With “MNKFKLGSDFDHLVNSLSDVELLNLFIQSCSQTTINGVPVPRFPPEEIQKQFVGASYEHALYEAYLFYRHIKEYAQNLGVPLNKESKVLDFGCGWGRIIRFLFKDASDQNLLGIDVDPAMITLCNETLGRGIYKTASPHPPVEFISDNSLDIIFAYSVFSHLSEATAENWVKEFSRVLRPGGIFIATTQARYFLDFCQQFQEHPELIQTGWHKTLSQAFPDIHRAISDYENGKFVHSPTGAGDVRNSSFYGETVIPRTYIENHYEKYLKLQDFFDDVNRLPQALFVLQKILEHHHHHH”, the “soluble on expression in E. coli” value is given as “not soluble”.
Turning to “MGERIIPKNMKPMNGMLLEHLARYYFSTPYASGRVLDIACGTGYGSVMVAKTRKTEVDQVLGVDFDADVIHYAKQNYYHPKVSFLVGDAMDPYLRNQIGTFDTILSFETIEHVKDDRLFIERMRQLLKKDGTLVLSTPFGQGRGKPSDEPFHYHQLTEEEFRSLFDSFSEKEVFYQRGVTIEPKRTNVHYAFGVAVCKLEHHHHHH”, the “soluble on expression in E. coli” value is “not soluble”.
The same measure for “MRILVLGVGNILLTDEAIGVRIVEALEQRYILPDYVEILDGGTAGMELLGDMANRDHLIIADAIVSKKNAPGTMMILRDEEVPALFTNKISPHQLGLADVLSALRFTGEFPKKLTLVGVIPESLEPHIGLTPTVEAMIEPALEQVLAALRESGVEAIPRSDS”: “soluble”; for “MSLSVEAMIGQLNAEIKRLDRLIRSHLNQHPELKKDFDLLTSIKSVGYQLGLNMLVILRSHDFATAEQAAAFLGVVPVEKYSGTSVRGCPKLSKIGPPEIRAKLYLASLCGLRFNPLMKAMYERLCLRGKGKMCAIGALMRKLVHWCYGVLKTQKPFDVGYLSSYARSACKAAEGHHHHHH”: “soluble”; for “MSAAVQKRASTNTVAATTYFKPAPSEIAWGKMRFLITDRPNNSSIQSYIEELEKHGARAVVRVCEPTYDTLALKEAGIDVLDWQFSDGSPPPPEVIKSWFQLCMTSFKEHPDKSIAVHCVAGLGRAPVLVAIALIEAGMKYEDAVEMIRTQRRGALNQKQLKFLETYKANGELRRLRGNVDGKQKSCCIQ”: “not soluble”.
Take “MSLVPARVFSCTILVDFQTEDQDTMCNLLRVQWTITPRTAPQPWLACNGCGDLRAFQASDKIRLNANGRKLDAWLIYRCLICDKSWNRPIFERQNVCDISPPVLEALQCNDPQWIRAETFNLEALRRKSQRIDEFPDFDIEKRIRDEPTDWAAAEIDLTVPFPASIRLDRLLASELGLSRSMLQKLHDGGQIRAQSDLLRRRLRNGTRIVIECGDGLDRERFWKPAVRGLEGHHHHHH”: the “soluble on expression in E. coli” value is given as “not soluble”.
Consider “SADNGGYVPAVVIGTGYGAAVSALRLGEAGVQTLMLEMGQLWNQPGPDGNIFCGMLNPDKRSSWFKNRTEAPLGSFLWLDVVNRNIDPYAGVLDRVNYDQMSVYVGRGVGGGSLVNGGMAVEPKRSYFEEILPRVDSSEMYDRYFPRANSMLRVNHIDTKWFEDTEWYKFARVSREQAGKAGLGTVFVPNVYDFGYMQREAAGEVPKSALATEVIYGNNHGKQSLDKTYLAAALGTGKVTIQTLHQVKTIRQTKDGGYALTVEQKDTDGKLLATKEISCRYLFLGAGSLGSTELLVRARDTGTLPNLNSEVGAGWGPNGNIMTARANHMWNPTGAHQSSIPALGIDAWDNSDSSVFAQIAPMPAGLETWVSLYLAITKNPQRGTFVYDAATDRAKLNWTRDQNAPAVNAAKALFDRINKANGTIYRYDLFGTQLKAFADDFCYQPLGGCVLGKATDDYGRVAGYKNLYVTDGSLIPGSVGVNPFVTITALAERNVERIIKQDVTAS”, for which the “soluble on expression in E. coli” value was “soluble”.
In the case of “SSGSTVDSTTLCLFDVDGTLTAARQKATADMHEFLSKLKQRVKVGVVGGSDLDKIKEQLGDDVIDRVDYVFAENGLVAYRFGKLHSVQNIQAYLGEDILQEFINFCLNYLSKIKLPKKRGTFIEFRNGMLNVSPIGRSCSQQERIEFFELDKKEKIRETFVSVLKEEFAGKGLAFSIGGQISFDVFPEGWDKRYCLGIVEKDSYQHIHFFGDKTMPGGNDYEIFVDPRTIGHEVKSPEDTQRICRELFFS”, the “soluble on expression in E. coli” value is given as “soluble”.
With “MAAAAAAKIAPSMLSSDFANLAAEADRMVRLGADWLHMDIMDGHFVPNLTIGAPVIQSLRKHTKAYLDCHLMVTNPSDYVEPLAKAGASGFTFHIEVSRDNWQELIQSIKAKGMRPGVSLRPGTPVEEVFPLVEAENPVELVLVMTVEPGFGGQKFMPEMMEKVRALRKKYPSLDIEVDGGLGPSTIDVAASAGANCIVAGSSIFGAAEPGEVISALRKSVEGSQNKS”, the “soluble on expression in E. coli” value was “soluble”.
“MSLELTISELKENFWGEYEYLDGGYMAARLAVLEHLEQIKRQSGIIIIREITEEYFAPVGNWHIRETVRNAMKNRLGKYDNLNLAISEVNKKLKAKINLFELRTINSLINQKSIYDFFKEGHHHHHH”: the “soluble on expression in E. coli” value is on record as “not soluble”.
The same measure for “MGSDKIHHHHHHMRLDEYISRDIAWCPGCGNFGIRTALMKALEELNVDPRQVVIVSGIGQAAKMPQYVGVNMFNGLHGRALPVATAIKTTNPNLLVIAESGDGCMYGEGGNHFIHTIRRNPDIVNIVHDNQVYGLTKGQASPTSLKGFKTPVQVDGVILEPFNPLAVAIALDASFVARTFIGDIEFTKDILKEAMKHKGYALVDILQPCVTFNKLNTYEWYRENTYYLKDHDPTDRELAFKRAIETEKLPLGIFYVNKNKETFEELARKGDRTPLYEYEVNFEKLKELIESKKS”: “not soluble”; for “SLTMNPLLTAEWGNVSEEKVEVVVDAGLGKALLVPASVESLSMQFNGVEVASLEEFDYSPTKSNARIVIGIDPNELVRALERYFESNQHGELSVEAKLGLFGLLHSTLTFSREFQQDILGQMDFKAESKPIFGGLLYTPSVEGTKVVWLGAENGVWNLKTYATLKNPNSFPIPVSNLEFEVSVNGIKVGVGNISQGVTIPAGGVATVPIDTEIYSEYLPTVLVAHIKNGEESSVEVNFYITVSSGGKSARINLTSERIVIQTDIMASINDALSGVSPRE”: “soluble”; for “MSLKRISIKDVALKAGVSIASVSYVLNNKIDSRIPQETIDKVKHAAEELNYRPNNIAKSLKTQRTHIIGLVVADIANPYFSQLARIIEDEANKLGYTLMIGSSDENAEKFEALINMFADRQADGLIIAPVENSEKCLLKLQKQKIPFVLIDRYLSGVEADSIQINNYDISQKVTEHLINGGYKNTLLVAYKTQLQHLLQRTQAFLNTLEKHQIQNSQVLLADKDYIDRDINTGLENMLQNAVKPDAIFFTSNKLAVSGLKKLTQLGINIPQDIAVAAFDETEAYELFPVPLTYVKQPLSAIGTTAVKMLNEKINIKNLPLQNVTLHAELHIGQSTKSKEGHHHHHH”: “soluble”.
Turning to “MELTAFRHQVGGHFGILLCNGHVAKPSNLREMAFYKVMNSELKHFSPAFCKEVDVRATVNPSTGQIVVETLEKLDCHKKKSSSKHERSSTGFRQTTDGRVTVDTEKQWNPWAAGCQCKVVERMLKELEPTPFLLLENVVAHYTRPCVLDLKIGTRQHGDDASESKRHRQLMKCRHSTSATLGVRVVGMQLYEAETKSYSYVEKQEGRRIDAAGFRGYVKRFIKCCGRSRAARIRQKLSKLRSLLAEFEGYRFFSASILIAFDAEAADSSSDDAVKVCIIDFAHSTFSGFFEDLAYSGADEGCLLGLDSIVEAMEPIVSKDPVTPSSSFEKKK”, the “soluble on expression in E. coli” value is “not soluble”.
On to “SADDKDVLRDVWFGRIPACFTLSPDETTEREAEPYYLLLPRVSYLTLVTDKVKKHFLKVMKAEDVEEMWFEHEGTPLKWHYPIGVLFDLHASNSALPWNVTVHFKNFPEQDLLHCSTNSVIEAHFMSCIKEADALKHKGQVINDMQKKDHKQLWMGLQNDKFDQFWAMNRKLMEYPTEEGGFRYIPFRIYQTMSDRPFIQTLFRPVSSEGQALTLGDLLKELFPAAIEDEPKKFQVMIHGIEPLLETPIQWLSEHLSHPDNFLHISIIPAPSD”, for which the “soluble on expression in E. coli” value is on record as “soluble”.
With “MHEFSIVQSLLTLIEDYARENNAKSVTKVVVSIGVLSGVEPHLLEMAFNTFKEGTVAEKAELIMEIEKLKIKCMDCGKESEKEELNMLCPGCGSLNTQIISGQDMFLKSLELEVD”, the “soluble on expression in E. coli” value was “soluble”.
To “FASVLQGVFEYPYGCAEQTASKGYAALWLDDATIRSLGIQGVTPAQRLERLEGALGRLASLQTTNGHFSMWGGNSDVNPVLTPYIAGFLLDAKDAGFAVSDAVLQKALNRLSEDLLSGAHLFYGNDQSEALMFAHQAWSGYVLARVNRAPLGTLRTLYDNERGKAVSGLSLVHLGVALSLQGDRKRGEAAIEAGFAKSEGGRPEVFGDYGSVIRDNALMIALVRAHGLAKPAYEARVMALGRDLQARRRSGWLWLSTQEQVALAQ” belongs “not soluble”; to “MKTAYIAKQRQISFVKSHFSRQLEERLGLIEVQAPILSRVGDGTQDNLSGAEKAVQVKVKALPDAQFEVVHSLAKWKRQTLGQHDFSAGEGLYTHMKALRPDEDRLSPLHSVYVDQWDWERVMGDGERQFSTLKSTVEAIWAGIKATEAAVSEEFGLAPFLPDQIHFVHSQELLSRYPDLDAKGRERAIAKDLGAVFLVGIGGKLSDGHRHDVRAPDYDDWSTPSELGHAGLNGDILVWNPVLEDAFELSSMGIRVDADTLKHQLALTGDEDRLELEWHQALLRGEMPQTIGGGIGQSRLTMLLLQLPHIGQVQAGVWPAAVRESVPSLL”, “soluble”; to “MGSDKIHHHHHHGLDRWMSWKTAPYIYDELQDLPYRQVGVVLGTAKYYRTGVINQYYRYRIQGALNAYNSGKVNYLLLSGDNALQSYNEPMTMRRDLIKGGVDPADIVLDYAGFRTLDSIVRTRKVFDTNDFIIITQRFHCERALFIALHMGIQAQCYAVPSPKDMWSVRLREFGARFGALADLYIFKREPRFLGPLIPIPAQQHDVPDDAQSYPAVTPEQLLELQKEK”, “not soluble”.
Take “MGSDKIHHHHHHMPVGRGVSVGLLPKSQSPLIGVDISSTAVKLLQLSRSGNRFRVEHYAVEPLPPNAVVEKNIVEVEAVGEAIRRAINRSGSKAKNAAAAVAGSAVITKLIPMPADLDDSDLEAQVELEATNYIPYPIEEVNLDFEVLGPMPNSPDMVQVLLAASRSENVELRQSALELGGLVAKVMDVEAFAVENAFALVASELPVAADAVVALVDIGATMTTLSVLRSGRSLYSREQVFGGKQLTDEVMRRYGLTYEEAGLAKRQGGLPESYEVEVLEPFKEATVQQISRLLQFFYAGSEFNRVDCIVLAGGCAALSRLPEMVEEQLGVTTVVANPLAQMTLGPKVQAHALALDAPALMIATGLALRSFD”: the “soluble on expression in E. coli” value is on record as “not soluble”.
In the case of “MGSDKIHHHHHHMTGRRIAIAIDSLAGGGAEKVMLTLASTLVELGHEPHLLVLQQDCHHEIPPGLQVHFCFGGDERNIDGFWRTRGSVQKLQQWITGLEERFGKFELFLSNLDKTNLLMTRTGVAPLYCVVHNSIEEELQRQRKLGPFAYLSMLRAKKSLNGQHLITVSKGIANEIAEVGRVQPASVQTIYNPFELEKIQHQASQTADALPKGDYIIHVGRFARQKRHDVLFAALKQMRNPLPLVLLCNNKKKAIKSARKFGVEDRVIIPGFQTNPYPWIKGARLLALSSDYEGLPTVLIESLAVGTPVVSTDCRHGPKEILTGALRRFLVPRRDPAALAMAMDEALTHYPDCDDAEILTQVGAAAVAGKYLKLLTA”, the “soluble on expression in E. coli” value is “not soluble”.
